Assays:
[1] = Bioluminescence assay of purified proteins with Co-h substrate (BRET); format: physicochemical; details: protein 1 μM, Co-h 50 μM, 1×PBS
Description: In addition, 100 μL of buffer (1×PBS) containing the protein purified in Example 1 (final concentration: 1 μM) was dispensed into a 96-well plate (SPL Cell Culture Plate, 96 well (SPL, Cat #30196)), and bioluminescence assay was then performed using 50 μL of buffer (1×PBS) containing a Co-h substrate solution (final concentration: 50 μM), which is a wild-type 2-deoxy derivative. Bioluminescence intensity was immediately measured at a wavelength of 300 to 800 nm using a Thermo Scientific™ Varioskan™ Flash Multimode Reader.

[2] = Stability of bioluminescence intensity in PBS or normal mouse serum; details: buffer (1×PBS) or normal mouse serum, 37° C., protein 10 μM, Co-h 150 μM
Description: Bioluminescence assay was performed by reaction of 30 μL of buffer (1×PBS) containing the purified protein RLuc8.6 or RLuc8.6-KR-LP protein, or RLuc8 or RLuc8-MS-LP protein (final concentration: 10 μM) and 0.8 μL of a Co-h substrate solution (final concentration: 150 μM) in an incubator (37° C.). 30 μL of normal mouse serum (Jackson ImmunoResearch, USA) containing the purified protein (final concentration: 10 μM) and 0.8 μL of a Co-h substrate solution (final concentration: 150 μM) were reacted in an incubator (37° C.). Bioluminescence intensity was immediately measured using GLOMAX.

B1: RLuc8.6: third protein, mutant Renilla luciferase 8.6 providing light, 38 kDa (protein)
chain: MASKVYDPEQRKRMITGPQWWARCKQMNVLDSFINYYDSEKHAENAVIFLHGNATSSYLWRHVVPHIEPVARCIIPDLIGMGKSGKSGNGSYRLLDHYKYLTAWFELLNLPKKIIFVGHDWGSALAFHYAYEHQDRIKAIVHMESVVDVIESWMGWPDIEEELALIKSEEGEKMVLENNFFVETLLPSKIMRKLEPEEFAAYLEPFKEKGEVRRPTLSWPREIPLVKGGKPDVVQIVRNYNAYLRASDDLPKLFIESDPGFFYNAIVEGAKKFPNTEFVKVKGLHFLQEDAPDEMGKYIKSFVERVLKNEQ
modifications: RLuc8.6
notes: third protein, mutant Renilla luciferase 8.6 providing light, 38 kDa
With B1 the “emission in bioluminescence assay (BRET)” value [1] was 535 nm and the “luminescence intensity with increasing reaction time (stability)” value [2] was “constant”.

B2: RLuc8: third protein, mutant Renilla luciferase 8 providing light, 38 kDa (protein)
chain: MASKVYDPEQRKRMITGPQWWARCKQMNVLDSFINYYDSEKHAENAVIFLHGNATSSYLWRHVVPHIEPVARCIIPDLIGMGKSGKSGNGSYRLLDHYKYLTAWFELLNLPKKIIFVGHDWGAALAFHYAYEHQDRIKAIVHMESVVDVIESWDEWPDIEEDIALIKSEEGEKMVLENNFFVETVLPSKIMRKLEPEEFAAYLEPFKEKGEVRRPTLSWPREIPLVKGGKPDVVQIVRNYNAYLRASDDLPKLFIESDPGFFSNAIVEGAKKFPNTEFVKVKGLHFLQEDAPDEMGKYIKSFVERVLKNEQ
modifications: RLuc8
In the case of B2, the “emission in bioluminescence assay (BRET)” value [1] is reported as 480 nm.

— patent US20220040304A1, “A COMPOSITION FOR CANCER CELL DEATH AND ITS USE” (Industry-University Cooperation Foundation Hanyang …, priority 2018, published 2022)
